The target of the test is monoclonal anti-H2a antibody of hybridoma clone B9 (ECACC 04030801). The test can be described thus: competitive ELISA, antibody preincubated overnight with free specific peptide, then plate-bound peptide. (In general: In an ELISA, binding on a coated surface is turned into a signal by an enzyme label.)

CEKRRNATGEVA [H2 carboxyterminal peptide (SEQ ID NO:1, …)] came in with a % inhibition of the reaction of 81%.

The record behind these values is patent publication US20060286615A1.
